Results taken from PMC10276540.

Target: Ultramarine fluorescent protein
Assay: AUC

Ultramarine fluorescent protein
stoichiometry N: 2
